{"source": "patent US20210188971A1", "key": {"[1]": {"target": "L1-10_NLuc antigen (Strep-MBP-L1-10-Nluc) (human)", "assay": "competition ELISA, soluble M22 titrated with L1-10_NLuc at 1 µg/mL; competitor M22 coated on the plate"}, "[2]": {"target": "L1-10_NLuc antigen (Strep-MBP-L1-10-Nluc) (human)", "assay": "competition ELISA, soluble M22 titrated with L1-10_NLuc at 0.1 µg/mL; competitor M22 coated on the plate"}, "[3]": {"target": "L1-10_NLuc antigen (Strep-MBP-L1-10-Nluc) (human)", "assay": "luminescence ELISA, M22 directly coated, L1-10_NLuc titrated"}, "[4]": {"target": "L1-10_NLuc antigen (Strep-MBP-L1-10-Nluc) (human)", "assay": "competition ELISA, soluble M22 titrated with L1-10_NLuc at 0.2 µg/mL; competitor M22 coated on the plate"}}, "data": [{"substance": "M22, unlabeled (thyroid-stimulating TSHR-specific monoclonal antibody)", "values": [{"measurement": "IC50", "setting": "[1]", "value": 0.03, "unit": "µg/mL"}, {"measurement": "IC50", "setting": "[2]", "value": 0.008, "unit": "µg/mL"}, {"measurement": "RLU", "setting": "[3]", "value": "< 7e+06", "unit": "RLU"}, {"measurement": "IC50", "setting": "[4]", "value": 0.012, "unit": "µg/mL"}]}]}
